Results as given in PMC4003280, “Structural basis for the Nanos-mediated recruitment of the CCR4–NOT complex and translational repression” (Genes & Development, 2014).
One block for each binder: values may come before it.

Columns and labels:
[1] = target: T1, MBP-CNOT1 SHD (human, UniProt A5YKK6 1833-2361); test: pull-down; GST pull-down in vitro with recombinant proteins expressed in E. coli; GST-NIM as bait; details: both partners purified
T1 construct: also called isolated CNOT1 SHD; NOT1 superfamily homology domain; source: E. coli BL21 (DE3) Star, purified (amylose resin, HiTrapQ, Superdex 200); not shown: MBP, N-terminal, kept
T1 sequence (A5YKK6 1833-2361): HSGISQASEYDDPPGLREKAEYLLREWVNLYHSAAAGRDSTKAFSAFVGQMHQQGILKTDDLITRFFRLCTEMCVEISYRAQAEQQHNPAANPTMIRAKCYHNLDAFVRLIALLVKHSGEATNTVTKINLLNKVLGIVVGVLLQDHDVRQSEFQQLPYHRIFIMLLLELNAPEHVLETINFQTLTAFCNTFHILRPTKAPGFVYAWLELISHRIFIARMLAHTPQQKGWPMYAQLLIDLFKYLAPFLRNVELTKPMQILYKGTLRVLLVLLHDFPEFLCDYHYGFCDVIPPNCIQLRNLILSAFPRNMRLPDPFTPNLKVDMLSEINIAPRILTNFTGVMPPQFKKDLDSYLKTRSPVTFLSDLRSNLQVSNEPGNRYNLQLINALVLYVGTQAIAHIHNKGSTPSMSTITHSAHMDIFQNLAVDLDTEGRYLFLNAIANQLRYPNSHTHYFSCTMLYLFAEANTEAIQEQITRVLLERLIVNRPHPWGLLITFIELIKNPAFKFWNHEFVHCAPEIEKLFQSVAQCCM

[2] = target: T2, CNOT1 SHD (residues 1833–2361), MBP tag removed (human, UniProt A5YKK6 1833-2361); test: crystal structure; CNOT1 SHD with synthetic Nanos1 NIM peptide; vapor diffusion at 22°C, 0.7-0.8 M succinic acid pH 7.0; refined at 2.8 Å; details: both partners purified
T2 construct: source: E. coli BL21 (DE3) Star, purified (amylose resin, HiTrapQ, HRV3C digestion, size exclusion chromatography); not shown: MBP, N-terminal, cleaved
T2 sequence (A5YKK6 1833-2361): as above

binding result [1]: binds
B1: GST-Nanos2 NIM (domain or fragment, human, UniProt P60321 6-22, looked up)
chain: FDMWKDYFNLSQVVWAL
notes: Nanos2, human, NIM, residues 6-22; also called conserved motif of Nanos2 fused to glutathione S-transferase; GST-tagged Nanos2 NIM; source: E. coli BL21 (DE3) Star, purified (described in the Supplemental Material)

binding result [1]: binds
B2: GST-Nanos3 NIM (domain or fragment, human, UniProt P60323 4-20, looked up)
chain: FDLWTDYLGLAHLVRAL
notes: Nanos3, human, NIM, residues 4-20; also called conserved motif of Nanos3 fused to glutathione S-transferase; GST-tagged Nanos3 NIM; source: E. coli BL21 (DE3) Star, purified (described in the Supplemental Material)

binding result [1]: binds
B3: GST-Nanos1 NIM (domain or fragment, human, UniProt Q8WY41 40-56, looked up)
chain: FSSWNDYLGLATLITKA
notes: Nanos1, human, NIM, residues 40-56; also called conserved motif of Nanos1 fused to glutathione S-transferase; GST-tagged Nanos1 NIM; source: E. coli BL21 (DE3) Star, purified (described in the Supplemental Material)

binding result [2]: binds
B4: Nanos1 NIM peptide (residues 40–56) (peptide, UniProt Q8WY41 40-56, looked up)
peptide: FSSWNDYLGLATLITKA
notes: Nanos1, H. sapiens, NIM, residues 40–56; also called NIM peptide of Nanos1; Nanos1 peptide; source: synthetic peptide (EMC Microcollections)
